Experimental data published in patent US20040203067.

Target: STAT-3 (endogenous, in 32Dcl3-derived cells) (UniProt P42227)
Sequence (P42227 2-770): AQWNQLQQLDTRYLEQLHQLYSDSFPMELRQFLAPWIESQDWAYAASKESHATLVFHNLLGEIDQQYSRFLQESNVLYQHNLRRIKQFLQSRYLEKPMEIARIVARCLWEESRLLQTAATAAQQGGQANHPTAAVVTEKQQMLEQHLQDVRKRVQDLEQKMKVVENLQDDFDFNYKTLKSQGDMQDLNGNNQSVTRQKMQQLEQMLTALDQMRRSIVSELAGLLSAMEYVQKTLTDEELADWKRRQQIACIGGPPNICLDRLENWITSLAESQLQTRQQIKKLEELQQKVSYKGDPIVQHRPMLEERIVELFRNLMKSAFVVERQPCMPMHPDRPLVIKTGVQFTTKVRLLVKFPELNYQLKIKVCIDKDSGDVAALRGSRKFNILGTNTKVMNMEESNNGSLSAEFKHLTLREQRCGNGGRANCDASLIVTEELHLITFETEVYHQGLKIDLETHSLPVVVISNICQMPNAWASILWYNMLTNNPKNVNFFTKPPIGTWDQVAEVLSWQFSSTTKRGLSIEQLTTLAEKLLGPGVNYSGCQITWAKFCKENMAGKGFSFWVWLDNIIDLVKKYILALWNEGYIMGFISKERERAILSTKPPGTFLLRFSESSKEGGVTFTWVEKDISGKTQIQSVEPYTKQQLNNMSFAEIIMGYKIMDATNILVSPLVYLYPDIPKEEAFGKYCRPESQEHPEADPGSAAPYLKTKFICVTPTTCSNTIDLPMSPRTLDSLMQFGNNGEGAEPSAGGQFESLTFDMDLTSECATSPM

For “c-Src (endogenous, activated, in IL-3 stimulated 32Dcl3 cells)”, which “tyrosine phosphorylation of STAT-3 (4G10 Western blot of STAT-3 immunoprecipitates)” value is on record?
Its value is “phosphorylation of STAT-3 following IL-3 stimulation of 32Dcl3 cells is blocked by AMSrc”.
